Source: PMC7035113 (Nature, 2020)

B1: WAPL residues 1-600 (domain or fragment)
chain: MTSRFGKTYSRKGGNGSSKFDEVFSNKRTTLSTKWGETTFMAKLGQKRPNFKPDIQEIPKKPKVEEESTGDPFGFDSDDESLPVSSKNLAQVKCSSYSESSEAAQLEEVTSVLEANSKISHVVVEDTVVSDKCFPLEDTLLGKEKSTNRIVEDDASISSCNKLITSDKVENFHEEHEKNSHHIHKNADDSTKKPNAETTVASEIKETNDTWNSQFGKRPESPSEISPIKGSVRTGLFEWDNDFEDIRSEDCILSLDSDPLLEMKDDDFKNRLENLNEAIEEDIVQSVLRPTNCRTYCRANKTKSSQGASNFDKLMDGTSQALAKANSESSKDGLNQAKKGGVSCGTSFRGTVGRTRDYTVLHPSCLSVCNVTIQDTMERSMDEFTASTPADLGEAGRLRKKADIATSKTTTRFRPSNTKSKKDVKLEFFGFEDHETGGDEGGSGSSNYKIKYFGFDDLSESEDDEDDDCQVERKTSKKRTKTAPSPSLQPPPESNDNSQDSQSGTNNAENLDFTEDLPGVPESVKKPINKQGDKSKENTRKIFSGPKRSPTKAVYNARHWNHPDSEELPGPPVVKPQSVTVRLSSKEPNQKDDGVFKAPA

Columns and labels:
[1] = target: T1, SA2-SCC1 complex (SA2 80-1060 in complex with SCC1 281-420) (human | , UniProt Q8N3U4;O60216); test: peptide or protein array
T1 sequence 1: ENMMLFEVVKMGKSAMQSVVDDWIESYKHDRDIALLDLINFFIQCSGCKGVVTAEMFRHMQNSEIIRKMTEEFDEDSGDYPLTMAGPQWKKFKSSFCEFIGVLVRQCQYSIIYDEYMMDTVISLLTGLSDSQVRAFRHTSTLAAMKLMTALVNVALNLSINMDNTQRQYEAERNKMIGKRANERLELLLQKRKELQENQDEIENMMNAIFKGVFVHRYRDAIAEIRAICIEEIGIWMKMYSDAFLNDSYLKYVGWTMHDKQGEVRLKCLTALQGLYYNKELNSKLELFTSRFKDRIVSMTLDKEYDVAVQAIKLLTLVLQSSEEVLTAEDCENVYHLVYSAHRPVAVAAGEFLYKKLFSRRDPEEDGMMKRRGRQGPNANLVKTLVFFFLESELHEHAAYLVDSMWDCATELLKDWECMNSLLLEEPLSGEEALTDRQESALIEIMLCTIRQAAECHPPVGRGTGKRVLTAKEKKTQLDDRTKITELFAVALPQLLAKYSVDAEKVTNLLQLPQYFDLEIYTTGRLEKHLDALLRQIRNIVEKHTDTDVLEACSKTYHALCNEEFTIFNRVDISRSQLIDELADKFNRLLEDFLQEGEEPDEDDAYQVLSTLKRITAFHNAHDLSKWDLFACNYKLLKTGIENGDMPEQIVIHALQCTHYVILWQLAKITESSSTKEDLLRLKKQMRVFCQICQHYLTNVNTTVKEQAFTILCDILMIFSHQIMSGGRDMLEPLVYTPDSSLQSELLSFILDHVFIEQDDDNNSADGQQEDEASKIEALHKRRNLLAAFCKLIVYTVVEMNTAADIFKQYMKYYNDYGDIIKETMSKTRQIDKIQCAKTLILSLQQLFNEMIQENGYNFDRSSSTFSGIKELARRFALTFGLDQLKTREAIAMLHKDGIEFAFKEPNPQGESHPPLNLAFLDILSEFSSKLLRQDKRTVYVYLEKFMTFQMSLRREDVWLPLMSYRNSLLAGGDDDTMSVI
T1 sequence 2: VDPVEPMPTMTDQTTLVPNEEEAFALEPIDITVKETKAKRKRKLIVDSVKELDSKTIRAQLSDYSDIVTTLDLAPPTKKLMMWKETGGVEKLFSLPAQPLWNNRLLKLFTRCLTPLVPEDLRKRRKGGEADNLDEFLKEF

[2] = target: T1, SA2-SCC1 complex (SA2 80-1060 in …); test: ITC
[3] = target: T1, SA2-SCC1 complex (SA2 80-1060 in …); test: pull-down

Binder	Kd [1]	further results
DVSVFDFEEEQ [CTCF array peptide Y226F (position 2)]	1.6 µM	
TGDPFGFDSDD [WAPL array peptide from residue 70 (position 6)]	5.9 µM	
KIKYFGFDDLS [WAPL array peptide from residue 450 (position 8)]	2.17 µM	
RKMAFEFDINS [SYCP1 array peptide from residue 882 (position 15)]	6.71 µM	
FTRAYDFETED [SYCP3 array peptide from residue 21 (position 17)]	1.96 µM	
KLEFFGFEDHE [WAPL array peptide from residue 425 (position 7)]	12.4 µM	
KLSAFNFLDGS [yeast WAPL array peptide from residue 108 (position 10)]	10.7 µM	
NYKIKYFGFDDLSESE [WAPL peptide 447-462 (third FGF motif only)]		Kd [2]: 78.7 µM; dH [2]: -28.5 kJ/mol; stoichiometry N [2]: 1
B1		binding result [3]: binds
